Measurements as given in the DeepSol protein solubility set.

Experiment: soluble on expression in E. coli; label from the status in PepcDB or PDB records

Sequence	soluble on expression in E. coli
MLPFLAASPGLGDVRAPAIWLGLVSQPSRTPIITKNSKTKRKTDGSTTRQSSSLGPRSSPLRSAGGQLRKTTRSELKKSHFHLGSWNAQSLLGPRLASGVEYLKNSTCHVVNLQETRFFSMASIDQPEFQLLFSPKTNSKDLGLGFFVKKCQDLEVINVSWIGVGIASLELEFRKVKIMVLNVYAPVCKSRSENDAKRFFERLRAEYIQLRKSFKGPIVLGGDFNAATSCSTNDELAPWICGNVFGNSNNHGDFFFNFLASTRLFQLNSRFRKRLASRWTFAGKKGVGRTEIDFFISNRIDLVEDVSTFPNLHNLSDHRLIRSRWVISVKSERDHAFKSRRPPSTGKERDWTLYEDAIKDLRKHATLGSYDSFVKTLRQGLVPLPAHKPHKFSQRTIMILQERRQVLESSVPDIAKLRKLSQEARKSITEDLTQKYDSILEACRKKRSSKILNKSIPAEIPLQYLEWPDGSLTANRIEIRKIVESHFKTLYEAPTSSPSHPRNPNSNPPNSDPVPAILKCEVRLEIRKLKTKSAPGLDNVDAAMLKNGGDTVVDSVTALFNDILHHNKVPDLWKIADVKLIPKKAKATKIKDFRPISLLPILSKMFSSILTRRLTPTLESYLDESQTKVFRKGRCCADNIQSLTMLIEKCNEFQLPLLLLFIDYQTAFDKISHSSVVSSLERAGADPAMRKMIQELMEGGQAEITVHDKKLKVNLCTGIRQGDSASPALFSAALQAILTDCDNELAGVGISVEGRHIRRLEFADDVVLICSTPEEVQERLEILDRISSNYGLKINQSKTVLLKNKFCRSQDILFNGSPIIPVPGCRYLGRWIDISGSIDEEISRRIRAGWGALVGIKEVLRIMPNKERIILFKQNVLPALLYASETWTCNAGSTLRLKRTVTGLIDAAEIRGWNFNLERYLLAKQSRFAGHILRRDPF	not soluble
MITTPLVHVASVEKGRSYEDFQKVYNAIALKLREDDEYDNYIGYGPVLVRLAWHISGTWDKHDNTGGSYGGTYRFKKEFNDPSNAGLQNGFKFLEPIHKEFPWISSGDLFSLGGVTAVQEMQGPKIPWRCGRVDTPEDTTPDNGRLPDADKDAGYVRTFFQRLNMNDREVVALMGAHALGKTHLKNSGYEGPWGAANNVFTNEFYLNLLNEDWKLEKNDANNEQWDSKSGYMMLPTDYSLIQDPKYLSIVKEYANDQDKFFKDFSKAFEKLLENGITFPKDAPSPFIFKTLEEQGL	soluble
MSIMGKVAKLDSAMQRGLDNSFAFVFGGKLVPAEIEELLKQEVQDNIVRAYEGGVESPNVFRVRVSRKDAQNLAQRYPSLADDFADRLSRYTRNQGWSTEGPVVVTIAADSGLRTGQLHASSAFDPVPQEYSHFIGVEDDVAAAAPTNDESNYESESGMNSYDADPRTEYMTAQAPDAIYTEVPVPEPKATPTVSLLLQDGSSRTYLVEEGSNIIGRSNEAHFRLPDTGVSRQHAEITWNGRDAILTDLKSTNGTTVNDTPVENWLLEDGDVITVGHSHIEVRIVEPN	not soluble
MSLEQMLWDAACSIRGEKDAAKFKDYLLPLLFLKRLSDVFDDEIERLAEEYGDRATALEIAESDHSLLRFYLPPEARWAVISGRESFDWPLDDRGRPTAPRDIGEHLTKAVRAVVKQNPTLSGVIDVVDFAAERNGERDINPAKLRGVVETFSDPRYRLGLADVQPDFLGRAYEYLLRKFAEGSGQSAGEFFTPTEVGFLMAHILRPKPGETCHDYACGSAGLLIKLQLVARELDPTSRVPLKLSGQELQAESYAVAQMNAIIHDMEVELARGDTMINPKFREASGKIRGHDIVVANPMWNQPFAADLFANDPFDRFRTAGGITSGKGDWAWLQHTLACMNDHGRAAVVLDTGAVTRGSGSKNEDKERTIRKWFVEQDLIDGVILLPENLFYNTTAAGVIVVLSRRKPAARKGKIVLLNASRRFKKGRPKNYLPEEDIRPLAAMYLKGEPVEGELAVITTEQAREADYNLSPSRWVGQNGDAEIGSIPNLLRALEQLNEEDASLTSGLLQLLRPLAKTGDAEGHHHHHH	soluble
MGSDKIHHHHHHMPETAHGVPVSTVKPDGAAMALKSKLLLIILDGVPYRNWRRLMGNLEGWVQSGEARVWKMRSVLPSTSACCYASIHTGVSPQVHGILSNENRFRVGQPDIFSEVSKAGGKTGAVTHSYWSEFFRSYPFDLVEDMEYDEPGGPITHGRFHTMTGYNARNQMTPSDVDLFATLTMLTKRHGIDYGILHTCTLDSMGHRFGNDCHEMDHAVYAMDGMLAAFLPGWIAAGYEVMVTADHGQTDRGHHGGHDDEMQDFALYYFGQGQGPETDTLLDQLQLAPTVLSRLGVPVPATMKAKPFLS	not soluble
SEAVGVAPAPAGVPEKKLLEVKESRKAAPAAPSTSMAAKWAMKKKLVGGDAGYVLEDVPHLTDYLPELPTYPNPLQDNPAYSVVKQYFVNTDDTVTQKIVVHKTSARGTHFRRAGPRQRVYFQSDEVNAAIVTCGGLCPGLNTVIRELVCGLYDMYGVTSVVGIEGGYKGFYSRNTVALTPKSVNDIHKRGGTVLGTSRGGHDTGKIVDSIKDRGINQVYIIGGDGTQKGASVIYEEVRRRGLKCSVVGVPKTIDNDIAVIDKSFGFDTAVEEAQRAINAAHVEAESAENGIGVVKLMGRNSGFIAMYATLASRDVDCCLIPESPFYLEGKGGLLEFIEKRLKDNGHMVIVVAEGAGQDLIAKSMNFVDTQDASGNKLLLDVGLWLSQKIKDHFKKKRNFPITLKYIDPTYMIRAVRSNASDNVYCTLLAHSALHGAMAGYTGFTVAPVNGRHAYIPFYRITEKQNKVVITDRMWARVLCSTNQPCFLSHEDVEHLKHDDDEHHLHNTQLLEGESSPVKDSSKCNGTAAPV	soluble
MTALTIKDLRYKHNQRMILQNVQLTLAPSKIVGLLGENGAGKTTLMRLITGSAKGQGSIVINGATTAVARKQQVSFTDHLTGFSAGMKLQQIAQFYQLVYPDFDAKRYQELVDFLELNQQQKLGELSKGTREKLIIALTLSRKVALYLLDEPFSGIDSMSRKKIINSIIKWTPAEATLLISDHYVTEIAPILDEIVVVKDQTIVVHQGADEIRDEHGMELEDYYESLYMGGVTDDK	not soluble
LITPQYKSEAKLYVLSKETTLTSLADLQIGSQLTQDYKILVGSRPVLQGVVDHMKLDMTYRKLEKKLTIDNPNNTRILTLTIKDPNPYLAKSIVDEVANTASDYIGEIMEMVPPKLIEDGEVASEKASPNVLKNT	not soluble
MEMVKSRSKVAIIGAGFVGASAAFTMALRQTANELVLIDVFKEKAIGEAMDINHGLPFMGQMSLYAGDYSDVKDCDVIVVTAGANRKPGETRLDLAKKNVMIAKEVTQNIMKYYNHGVILVVSNPVDIITYMIQKWSGLPVGKVIGSGTVLDSIRFRYLLSEKLGVDVKNVHGYIIGEHGDSQLPLWSCTHIAGKNINEYIDDPKCNFTEEDKKKIAEDVKTAGATIIKNKGATYYGIAVSINTIVETLLKNQNTIRTVGTVINGMYGIEDVAISLPSIVNSEGVQEVLQFNLTPEEEEALRFSAEQVKKVLNEVKNL	soluble
MTIRLNDLGQVYLVCGKTDMRQGIDSLAYLVKSQHELDLFSGAVYLFCGGRRDRFKALYWDGQGFWLLYKRFENGKLAWPRNRDEVKCLTAVQVDWLMKGFFISPNIKISKSHDFY	not soluble
RTEAGDAYYSKFANNTPLPALMVSRKKFGSSYVYDKSYKTWDVPIAEQMEQKAKINIFAVAEYTDTQKIKVTVKGKILEGNTLPKSMVQVYLLEDKLIAPQVDGNTTVENYEHNHVLRGAVNGIWGEEFVNLKDYLYTYAVEPLSGMSFVAENYSIVAFVYDVQTFEVYDVVHVKINPQSDGK	soluble
MSLFFDKVIRLNIGGKRFDTHKSTLMKFDGYFKKFLQTPGSSLVDPIFVDRSPTYFDIVLNFMRKGRADLPETLKDLKMLLGEAEYYELTELCDDCKREISRLDIGIESEPFYEIIPEPSVVARNNNNTIPNNVVEVGS	soluble
MTPQELNAECHACDKTPPAANTYKGWSGFVGLAAQLNQAWRVGYDITSGYRVPNASEVYFTYNHGSGNWLPNPNLKAERSTTHTLSLQGRSEKGMLDANLYQSNYRNFLSEEQKLTTSGTPGCTEENAYYGICSDPYKEKLDWQMKNIDKARIRGIELTGRLNVDKVASFVPEGWKLFGSLGYAKSKLSGDNSLLSTQPLKVIAGIDYESPSEKWGVFSRLTYLGAKKVKDAQYTVYENKGWGTPLQKKVKDYPWLNKSAYVFDMYGFYKPAKNLTLRAGVYNLFNRKYTTWDSLRGLYSYSTTNAVDRDGKGLDRYRAPGRNYAVSLEWKF	not soluble
MAHHHHHHMRRTVVQRVAPWVPPPRHDIKVTMPPPPGGEVGGRFGVSQGYSDRLARTPYWKRMALSTYKLRMMENATRYPMSEHRPGEYDIRYLPTPYPCTIRNRPLLEVGEPRQIPSIRIPVIFLVNLFDEAKGCWFGRRYETVYVERQFMREELMPQRYAIYATPEAYKLLGLPVVNHHTHEEIPKTPREYEKLLERQRYDEERWKYTIEYLFRKYEDGPPELLDRPEDGWDGSEEIALSSVAGAGRDGVVSQRKGPVKQRKARKIKLF	not soluble
MAALIRNLGARAAVAALSAKHVVPAAGSTALRMASTTPVEPKKADKPTVRQPDAVARSHLSDFGRYVAECLPKYVQKVQLTAGDELEVLIAPEGVVPVLQFLKDHHQAQFTNLVDIAGVDVPCRKNRFEVVYNLLSLRYNSRIRVKTYTDELTPLDSACEVHKAANWYEREIWDMYGVFFANHPDLRRILTDYGFEGHPQRRDFPLSGYVELRYDDEKKRVVCEPLELAQEFRKFDLSAPWEQFPNFRNANPPAEVVPPQAPAKK	not soluble
MGSDKIHHHHHHMKSELFYRKLEKCDLCPRNCGVNRLMGEKGACGVANSPVVSSWGPHFGEERILVGRGGSGTVFFTYCNLKCVYCQNYEISQLGIGKEITVEDLLRIFTELQDMGVENLNLVTPTHQIPFIVDAFERMEKEIPVVYNCGGYESVDTIISLEGFVDIYMPDFKYSDPELGEKLSGVKDYPRFALEALKVMIDQMGEPVIRNGVMKKGVLVRHLVLPGFLEDSFGVIDLLSTLEPKPLVNIMAQFYPAYRAKEYGLDRFITRDEYLKVVEYAKKKKLNLIEVERWLRWL	not soluble
MSLTGRAFAIPLRTRFRGITVREGMLVRGAAGWGEFSPFAEYGPRECARWWAACYEAAELGWPAPVRDTVPVNATVPAVGPEEAARIVASSGCTTAKVKVAERGQSEANDVARVEAVRDALGPRGRVRIDVNGAWDVDTAVRMIRLLDRFELEYVEQPCATVDELAEVRRRVSVPIAADESIRRAEDPLRVRDAEAADVVVLKVQPLGGVRAALRLAEECGLPVVVSSAVETSVGLAAGVALAAALPELPYACGLATLRLLHADVCDDPLLPVHGVLPVRRVDVSEQRLAEVEIDPAAWQARLAAARAAWEQVEREPGPEGHHHHHH	soluble
MKQVTVLLIGLGRMGSRFFDKFVEIGEERVKIVGVCELNEQNPKVLEAKKRNIPLYPSYKEALTDLHESVDIILDTSNISEVKRDIRELLSRQNNQHSVLLPMVADYLLWYMLPNAEEIPQDHTDIGY	not soluble
VKLAAGMGVMSDLEKKFIELEAKLVAQPAGQAMPGKSNIFANNEAWRQEMLKQDPEFFNRLANGQSPEYLWIGCADSRVPANQLLDLPAGEVFVHRNIANQCIHSDISFLSVLQYAVQYLKVKHILVCGHYGCGGAKAALGDSRLGLIDNWLRHIRDVRRMNAKYLDKCKDGDEELNRLIELNVLEQVHNVCATSIVQDAWDAGQELTVQGVVYGVGDGKLRDLGVVVNSSDDISKFYRTKSDSGALKAGNPNAPLVQVTKGGESELDSTMEKLTAELVQQTPGKLKEGANRVFVNNENWRQKMLKQDPQFFSNLAHTQTPEILWIGCADSRVPANQIINLPAGEVFVHRNIANQCIHSDMSFLSVLQYAVQYLKVKRVVVCGHYACGGCAAALGDSRLGLIDNWLRHIRDVRRHNQAELSRITDPKDSLNRLIEINVLEQMHNVCATSIVQDAWDAGQELEVQGVVYGVGDGKLRDMGVVAKANDDIGQIFRTKQ	soluble
